Assay results published in paper PMC7475177, “[…] RESPONSE FACTOR39–MYB8 complex regulates low-temperature-induced lignification of loquat fruit”.

Target: EjERF39 (Eriobotrya japonica cv. Luoyangqing …, UniProt A0A482LZG5 1-253)
Assay: EMSA; not given in the material; EMSA as described by Ge et al. (2017)
Details: protein: recombinant; tags: GST (pGEX-4T-1); label: 3' biotin

Sequence of EjERF39 (A0A482LZG5 entry or part of it): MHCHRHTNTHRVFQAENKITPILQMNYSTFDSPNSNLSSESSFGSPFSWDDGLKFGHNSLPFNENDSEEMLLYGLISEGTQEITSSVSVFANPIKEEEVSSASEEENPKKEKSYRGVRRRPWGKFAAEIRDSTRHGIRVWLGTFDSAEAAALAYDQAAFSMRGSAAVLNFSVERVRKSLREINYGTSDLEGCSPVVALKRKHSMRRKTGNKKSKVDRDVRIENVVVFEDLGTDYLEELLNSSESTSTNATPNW

B1: Ej4CL1 promoter DRE2 probe (dsDNA)
DNA 1: GTTCACAAGACAATCTGGCCGACCTCTTCACAAAATCAGT
DNA 2: ACTGATTTTGTGAAGAGGTCGGCCAGATTGTCTTGTGAAC
binding result: binds

B2: Ej4CL1 promoter DRE1 probe (dsDNA)
DNA 1: TCGCCTTGTTGGTTATGCCGACGCAGGATACTTGTCTG
DNA 2: CAGACAAGTATCCTGCGTCGGCATAACCAACAAGGCGA
binding result: no binding
